In assay [1] the target is human soluble CD3 (human) (UniProt P07766). In words: SPR Biacore pH 7.4.
For assay [2] the target is unchanged. As to the kind of experiment: SPR Biacore affinity.
The target is the same in assay [3]. In words: SPR Biacore pH 7.4, average.
For assay [4] the target is unchanged. As to the kind of experiment: SPR Biacore.
Assay [5] has the same target. In words: SPR Biacore 3000, antigen immobilised.
For assay [6] the target is unchanged. As to the kind of experiment: SPR.

Substitutions are numbered along the chain they refer to. “And” between values parts separate entries of the source, which are not always exact repeats. Identical values can stand only once.

human soluble CD3 (human), sequence (P07766 23-126, chain 1 of 2): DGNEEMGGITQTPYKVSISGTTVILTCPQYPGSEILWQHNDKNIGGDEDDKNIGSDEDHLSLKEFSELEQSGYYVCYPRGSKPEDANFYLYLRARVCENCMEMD
human soluble CD3 (human), sequence (P04234 22-105, chain 2 of 2, further chain): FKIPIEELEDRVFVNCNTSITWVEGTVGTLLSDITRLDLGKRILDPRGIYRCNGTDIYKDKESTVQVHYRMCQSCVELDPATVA

B1: 153 VF-DART (bispecific antibody, not shown: small tags and cut ends)
chain 1: QSVLTQPPSVSAAPGQKVTISCSGSSSNIGNNYVSWYQQLPGTAPKLLIYDNNKRPSGIPDRFSGSKSGTSATLGITGLQTGDEADYYCGTWDSSLSGVVFGGGTKLTVLGGGSGGGGEVQLVESGGGLVQPGGSLRLSCAASGFTFSTYAMNWVRQAPGKGLEWVGRIRSKYNNYATYYADSVKGRFTISRDDSKNSLYLQMNSLKTEDTAVYYCVRHGNFGNSYVSWFAYWGQGTLVTVSS
chain 2: QAVVTQEPSLTVSPGGTVTLTCRSSTGAVTTSNYANWVQQKPGQAPRGLIGGTNKRAPWTPARFSGSLLGGKAALTITGAQAEDEADYYCALWYSNLWVFGGGTKLTVLGGGGSGGGGEVQLVQSGAEVKKPGASVKVSCKASGYTFTSYGISWVRQAPGQGLEWMGWISAYNGNTNYAQKLQGRVTMTTDTSTSTAYMELRSLRSDDTAVYYCATIDTANAFGIWGQGTMVTVSS
modifications: One interchain disulfide between the Linker 2 cysteines; these linkers are left out of the letters.
As for B1, in assay [1], the Kd was 0.00465 µM and 0.00477 µM; the koff was 0.00525 s⁻¹ and 0.00555 s⁻¹; the kon is 1.13e+06 M⁻¹ s⁻¹ and 1.16e+06 M⁻¹ s⁻¹; the t½ is 2.07 min and 1.96 min. In assay [2], this molecule came in with a Kd of 0.00471 µM. Also, the dissociation constant Kd in assay [3] is 0.00471 µM.

B2: 154 VF-DART (bispecific antibody, not shown: small tags and cut ends)
chain 1: B1 chain 1 with G98S, V99Y, G103T, L107V
chain 2: B1 chain 2 with N221T, G224D
In assay [2], B2 yielded a Kd of 0.00369 µM.

B3: 153 EK-DART (bispecific antibody)
chain 1: QSVLTQPPSVSAAPGQKVTISCSGSSSNIGNNYVSWYQQLPGTAPKLLIYDNNKRPSGIPDRFSGSKSGTSATLGITGLQTGDEADYYCGTWDSSLSGVVFGGGTKLTVLGGGSGGGGEVQLVESGGGLVQPGGSLRLSCAASGFTFNTYAMNWVRQAPGKGLEWVARIRSKYNNYATYYADSVKDRFTISRDDSKNSLYLQMNSLKTEDTAVYYCVRHGNFGNSYVSWFAYWGQGTLVTVSSGGCGGGKVAALKEKVAALKEKVAALKEKVAALKE
chain 2: QAVVTQEPSLTVSPGGTVTLTCRSSTGAVTTSNYANWVQQKPGQAPRGLIGGTNKRAPWTPARFSGSLLGGKAALTITGAQAEDEADYYCALWYSNLWVFGGGTKLTVLGGGGSGGGGEVQLVQSGAEVKKPGASVKVSCKASGYTFTSYGISWVRQAPGQGLEWMGWISAYNGNTNYAQKLQGRVTMTTDTSTSTAYMELRSLRSDDTAVYYCATIDTANAFGIWGQGTMVTVSSGGCGGGEVAALEKEVAALEKEVAALEKEVAALEK
For B3, in assay [4], the equilibrium dissociation constant (Kd) was determined as 0.0157 µM, the koff was found to be 0.00631 s⁻¹ and the on-rate (kon) turned out to be 403000 M⁻¹ s⁻¹. Moreover, in assay [1], the Kd was 0.0223 µM and 0.024 µM; the koff is 0.00618 s⁻¹ and 0.0068 s⁻¹; the kon was 277000 M⁻¹ s⁻¹ and 283000 M⁻¹ s⁻¹; the t½ was 1.76 min and 1.6 min. This molecule also displayed a Kd in assay [3] of 0.0232 µM.

B4: 35 EK-DART (bispecific antibody)
chain 1: B3 chain 1 with G98A
chain 2: B3 chain 2 with N221S, G224D
In assay [4], B4 had a Kd of 0.0236 µM, a koff of 0.00447 s⁻¹ and an on-rate constant (kon) of 189000 M⁻¹ s⁻¹. Moreover, in assay [5], the equilibrium dissociation constant (Kd) was 0.0236 µM, the dissociation rate constant (koff) came out at 0.00447 s⁻¹ and the kon worked out at 189000 M⁻¹ s⁻¹. Besides, the Kd in assay [6] came out at 0.0171 µM.

The values above are taken from patent US20160002357A1.
